Laboratory results: patent US9623039B2, “Treatment and prevention of pathological conditions using iduna related techniques and compositions” (VALTED, LLC, priority 2010, dated 2017)

Key:
[1] = Middle cerebral artery occlusion; format: in vivo, mouse
Experimental: Middle Cerebral Artery Occlusion (MCAD): To occlude the middle cerebral artery, mice were anesthetized with 1.5-2% isoflurane and maintained at normothermic temperature. A 7-0 monofilament with an enlarged silicone tip was passed through the right internal carotid artery to the base of the middle cerebral artery. Occlusion was confirmed by laser-Doppler flowmetry with a probe placed on thinned skull over the lateral parietal cortex. After 60 min of occlusion, the filament was removed and reperfusion was verified. At 24 h of reperfusion, the brain was harvested, sectioned into five coronal slabs, and stained with the vital dye, triphenyltetrazolium chloride. Infarct area was measured on the anterior and posterior surfaces of each slab and integrated to obtain infarct volume with correction for tissue swelling. The investigator performing the surgery and analyzing infarct size was unaware of the genotype of the mouse.
Neurobehavioural Activity: Spontaneous motor activity was evaluated for 5 min by placing the animals in a mouse cage for 5 minutes. […] Neurological deficits were evaluated by an observer blinded to the treatment and genotype of the animals with a scale of 0-4 (0 no neurological deficit, 4 severe neurological deficit). […] Recordings were evaluated by an observer blinded to the treatment and genotype of the animals. […]

MCF7 cells [2] = experiment: Cell cycle analysis after γ-irradiation; format: cell-based, human; conditions: γ-irradiation 2 Gy
Experimental: Cell cycle analysis. Studies were performed to evaluate the cell cycle response of each stable cell lines. Cells were plated onto 150 mm culture dishes and cultured for 24 h at 37° C. with fresh growth medium. Following replacement of growth medium, cells were irradiated at 2 Gy with a Gammacell irradiator. After 12 h, cells were washed once with PBS and incubated with PBS containing 0.2% EDTA for 5 min at 37° C., thereafter scraped with fresh growth medium and collected at 500×g at 4° C. Collected cells were washed once with ice cold PBS and then fixed with 70% ethanol. Cells were washed once with PBS containing 1% FBS and resuspended into propidium iodide (PI) staining buffer (PBS, pH 7.4, 50 μg/ml PI, 1% FBS, 100 μg/ml RNase) for 30 min at 37° C. Cells were monitored for DNA content by a flow cytometry (BD Biosciences) and then data were analyzed with FlowJo using Dean-Jett-Fox model for the quantification of each cell cycle phase.

PARP-1 [3] = target: T1, PARP-1 (Homo sapiens, UniProt P09874); experiment: Chemiluminescent PARP assay (biotinylated PAR onto histone); format: biochemical; conditions: incorporation of biotinylated PAR onto histone proteins
T1 construct: purchased Trevigen
Experimental: (§1) Because PARP-1 activation plays a prominent role in NMDA excitotoxicity we tested whether PARP-1 activity is directly affected by Iduna. PARP-1 activity was assessed by incorporation of biotinylated PAR onto histone proteins.
Chemiluminescent PARP assay for poly(ADP-ribosyl)ation of Histone H1: Activity of PARP-1 was determined by Trevigen Universal chemiluminescent PARP assay kit (Trevigen, Gaithersburg, Md., USA) in the presence of Iduna or the PARP-1 inhibitor 3-aminobenzamide (3-AB). According to manufacturer's instructions, the incorporation of biotinylated NAD+ (Trevigen) into the poly(ADP-ribose) polymer primed at solid phase immobilized histone H1 (Trevigen) was detected by the chemiluminescent assay, either in the presence or absence of recombinant Iduna. Reactions were performed with 34 μM total biotinylated NAD+ for 60 min at 25° C. in triplicates. Chemiluminescence was measured using a fluorescence multi-well plate reader (SOSTmax, Sunnyvale, Calif.) with an excitation at 544 nm excitation/590 nm emission. In the parallel wells, PARP1 activity was measured after the 3-aminobenzamide treatment at the same concentration of biotinylated NAD+ (34 μM).

cytochrome c = experiment: Cytochrome c release after NMDA excitotoxicity; format: cell-based, mouse; conditions: NMDA 500 μM for 5 min, 4 hrs
Experimental: FIG. 53—Immunoblot showing release of CYT C. Mouse cortical neurons over-expressing GFP, GFP-Iduna or GFP-Iduna-YRAA were subjected to NMDA-excitotoxicity (500 μM for 5 min) on DIV 14. Following subcellular fractionation into mitochondrial and cytosolic (post-mitochondrial) fractions, CYT C release was monitored 4 hrs following NMDA stimulation. COX IV was used as a marker for mitochondria and GAPDH was used a marker for cytosol. Data were repeated three times with similar results.
FIG. 54—Quantification of cytochrome c release from mitochondria following NMDA-toxicity. […] Values of optical density were quantified using Image J software and the data were normalized to the values of GAPDH in the cytosol.

AIF = experiment: NMDA-induced AIF translocation in cortical neurons; format: cell-based, mouse; conditions: excitotoxic NMDA
Excerpt: Parthanatos involves the translocation of apoptosis inducing factor (AIF) from the mitochondria to the nucleus following NMDA excitotoxicity. AIF translocation following excitotoxic NMDA treatment was monitored by immunohistochemistry and confocal microscopy (FIG. 50) and by immunoblot analysis of nuclear and mitochondrial subcellular fractions (FIG. 51).

MCF7 cells [4] = experiment: MNNG cell death assay in stable MCF7 cell lines; format: cell-based, human; conditions: MNNG 500 μM 15 min, 24 hr
Experimental: Cell death assay. GFP, GFP-Iduna, GFP-Iduna C60A, GFP-Iduna YRAA, shRNA-Iduna and shRNA-Iduna/GFP-Iduna stably transfected cells were treated with 500 μM MNNG for 15 min, and replaced with fresh growth media. After 24 h, the cells were stained with […] Hoechst 33342 (Invitrogen) and […] propidium iodide (PI) (Invitrogen) and counted by automated computer-assisted program (Carl Zeiss). The percentage of cell death was determined as the ratio of live to dead cells compared with the percentage of cell death in control.

PARP-1 [5] = experiment: PARP inhibition assay (32P-NAD incorporation into PAR polymer); format: biochemical; conditions: 32P-NAD incorporation into radiolabeled PAR polymer
Experimental: as §1
PARP Inhibition Assay: To evaluate the ability of Iduna to act as a PARP inhibitor, [^32P]-labeled automodified PARP-1 was synthesized in presence of GST, GST-Iduna or PARG, respectively. To purify the [^32P]-labeled automodified PARP-1, the reaction mixture was incubated with anti-PAR antibody for 4 h at 4° C. and then sequentially incubated with protein-G slurry for 1 h at 4° C. Samples were washed two times with PBS and the amount of [^32P]-labeled automodified PARP-1 was measured by LS 6500 Liquid Scintillation Counting System.

T1 sequence (P09874 whole entry): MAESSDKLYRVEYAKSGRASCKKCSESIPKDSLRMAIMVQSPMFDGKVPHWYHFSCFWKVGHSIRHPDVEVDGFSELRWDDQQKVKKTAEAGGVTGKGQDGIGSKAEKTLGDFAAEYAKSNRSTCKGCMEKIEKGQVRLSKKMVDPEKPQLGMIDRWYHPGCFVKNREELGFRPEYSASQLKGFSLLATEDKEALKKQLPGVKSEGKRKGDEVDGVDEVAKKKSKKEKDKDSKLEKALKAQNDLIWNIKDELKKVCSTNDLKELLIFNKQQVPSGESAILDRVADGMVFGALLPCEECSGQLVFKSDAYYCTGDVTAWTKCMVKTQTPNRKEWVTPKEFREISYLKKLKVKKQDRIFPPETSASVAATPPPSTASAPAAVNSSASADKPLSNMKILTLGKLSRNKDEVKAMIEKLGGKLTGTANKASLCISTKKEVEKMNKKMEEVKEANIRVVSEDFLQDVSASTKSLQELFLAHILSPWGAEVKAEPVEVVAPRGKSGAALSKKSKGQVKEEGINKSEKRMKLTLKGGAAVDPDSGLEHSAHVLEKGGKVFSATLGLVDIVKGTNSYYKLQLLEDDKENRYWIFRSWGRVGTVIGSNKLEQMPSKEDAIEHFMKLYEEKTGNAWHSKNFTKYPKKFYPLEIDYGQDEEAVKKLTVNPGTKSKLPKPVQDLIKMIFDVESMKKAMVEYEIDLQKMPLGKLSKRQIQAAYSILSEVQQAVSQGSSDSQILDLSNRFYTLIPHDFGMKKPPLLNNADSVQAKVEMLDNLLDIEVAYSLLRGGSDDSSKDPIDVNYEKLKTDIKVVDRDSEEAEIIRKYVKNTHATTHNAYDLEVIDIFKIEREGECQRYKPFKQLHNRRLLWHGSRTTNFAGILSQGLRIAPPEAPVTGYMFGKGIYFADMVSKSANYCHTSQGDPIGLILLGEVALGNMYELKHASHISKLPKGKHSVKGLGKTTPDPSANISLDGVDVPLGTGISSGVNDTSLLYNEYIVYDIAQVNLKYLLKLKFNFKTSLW

B1: Iduna: novel NMDA-induced cell survival protein, PAR-dependent E3 ligase; 359 amino acids (protein)
chain: MEMAGCGEIDHSINMLPTNKKANESCSNTAPSLTVPECAICLQTCVHPVSLPCKHVFCYLCVKGASWLGKRCALCRQEIPEDFLDKPTLLSPEELKAASRGNGEYAWYYEGRNGWWQYDERTSRELEDAFSKGKKNTEMLIAGFLYVADLENMVQYRRNEHGRRRKIKRDIIDIPKKGVAGLRLDCDTNTVNLARESSADGADSGSAQTGASVQLAVPSSTRPLTSVDGQLTSPVTPSPDAGISLEDSFAHLQLSGDSIAERSHRGEGEEDHESPSSGRVPDTSVEETESDASSDSEDAPVVVAQHSLTQQRPLVPNGNQTVADQSDRSGTDRSVAGGGTMSVNVRSRRPDGQCTVIEV
reduction of infarct volume ([1]; Iduna transgenic mice vs wild type, 60 min occlusion): 50%
neurological function following stroke ([1]; Iduna-Tg mice vs WT): improved neurological function
cell cycle arrest and cell survival (MCF7 cells [2]): rescues cells from G1 arrest in the cell cycle and promotes cell survival
PARP-1 activity (PARP-1 [3]): has no effect
cytochrome c translocation from mitochondria to the cytoplasm (cytochrome c): reduction of cytochrome c translocation from mitochondria to the cytoplasm
AIF translocation to the nucleus (AIF): reduces the translocation of AIF
MNNG-induced cell death (MCF7 cells [4]): dramatically rescues MCF7 cells from MNNG-induced cell death
PARP-1 catalytic activity (PARP-1 [5]): fails to inhibit PARP-1 catalytic activity
